From publication PMC4878091 (The Journal of Cell Biology, 2016)

Biological target: recombinant collagen IV α2 monomer (α2-84/α2-CB3)
Experiment: SEC

stoichiometry N: 2
B1: recombinant collagen IV α1 monomer (α1-84/α1-CB3) (domain or fragment)
chain: not shown
